Reference: patent US20170304407

Molecular target: prothrombin

B1: oscutarin C (OsPA), Group C prothrombin activator purified from Oxyuranus scutellatus (Coastal Taipan) venom, preparation 17 Apr. 2012 (protein)
chain 1: ANSLYEEFRSGNIERECIEERCSKEEAREVFEDDEKTETFWNVYVDGDQCSSNPCHYRGTCKDGIGSYTCTCLSGYEGKNCERVLYKSCRVDNGNCWHFCKPVQNDIQCSCAEGYLLGEDGHSCVAGGNFSCGRNIKTRNKREASLPDFVQSQNAILLKKSDNPSPDIRIVNGMDCKLGECPWQAVLVDEKEDAFCGGTILSPIYVLTAAHCINQTKMISVVVGEINISRKNPGRLLSVDKIYVHQKFVPPKKGYEFYEKFDLVSYDYDIAILQMKTPIQFSENVVPACLPTADFANQVLMKQDFGIVSGFGRIFEKGPQSKTLKVLKVPYVDRHTCMLSSESPITPTMFCAGYDTLPRDACQGDSGGPHITAYRDTHFITGIVSWGEGCAQTGKYGVYTKVSKFILWIKRIMRQKLPSTESSTGRL
chain 2: AQLREYRLAAQLEDWDYNPQPEELSRLSESDLTFKKIVYREYELDFKQEKPRDELSGLLGPTLRGEVGDSLIIYFKNFATQPVSIHPQSAVYNKWSEGSSYSDGTSDVERLDDAVPPGQSFKYVWNITAEIGPKKADPPCLTYAYYSHVNMVRDFNSGLIGALLICKEGSLNADGAQKFFNREYVLMFSVFDESKNWYRKPSLQYTINGFANGTLPDVQACAYDHISWHLIGMSSSPEIFSVHFNGQTLEQNHYKVSTINLVGGASVTANMSVSRTGKWLISSLVAKHLQAGMYGYLNIKDCGNPDTLTRKLSFRERRRIMKWEYFIAAEEITWDYAPEIPSSVDRRYKAQYLDNFSNFIGKKYKKAVFRQYEDSNFTKPTYAIWPKERGILGPVIKAKVRDTVTIVFKNLASRPYSIYVHGVSVSKDAEGAVYPSDPKENITHGKAVEPGQVYTYKWTVLDTDEPTVKDSECITKLYHSAVDMTRDIASGLIGPPLVCKRKALSIRGVQNKADVEQHAVFAVFDENKSWYLEDNIKKYCSNPSSVKKDDPKFYKSNVMYTLNGYASDRTEVWGFHQSEVVEWHLTSVGTVDEIVPVHLSGHTFLSKGKHQDILNLFPMSGESATVTMDNLGTWLLSSWGSCEMSNGMRLRFLDANYDDEDEGNEEEEEDDGDIFADIFNPPEVVIKKEEVPVNFVPDPESDALAKELGLFDDEDNPKQSRSEQTEDDEEQLMIASMLGLRSFKGSVAEEELKHTALALEEDAHASDPRIDSNSAHNSDDIAGRYLRTINRRNKRRYYIAAEEVLWDYSPIGKSQVRSLPAKTTFKKAIFRSYLDDTFQTPSTGGEYEKHLGILGPIIRAEVDDVIEVQFRNLASRPYSLHAHGLLYEKSSEGRSYDDNSPELFKKDDAIMPNGTYTYVWQVPPRSGPTDNTEKCKSWAYYSGVNPEKDIHSGLIGPILICQKGMIDKYNRTIDIREFVLFFMVFDEEKSWYFPKSDKSTCEEKLIGVQSRHTFPAINGIPYQLQGLMMYKDENVHWHLLNMGGPKDVHVVNFHGQTFTEEGREDNQLGVLPLLPGTFASIKMKPSKIGTWLLETEVGENQERGMQALFTVIDKDCKLPMGLASGIIQDSQISASGHVGYWEPKLARLNNTGMFNAWSIIKKEHEHPWIQIDLQRQVVITGIQTQGTVQLLKHSYTVEYFVTYSKDGQNWITFKGRHSKTQMHFEGNSDGTTVKENHIDPPIIARYIRLHPTKFYNTPTFRIELLGCEVEGCSVPLGMESGAIKDSEITASSYKKTWWSSWEPFLARLNLKGRTNAWQPKVNNKDQWLQIDLQHLTKITSIITQGATSMTTSMYVKTFSIHYTDDNSTWKPYLDVRTSMEKVFTGNINSDGHVKHFFNPPILSRFIRIIPKTWNQYIALRIELFGCEVF
rate of prothrombin activation in the S-2238 two-stage assay (thrombin produced against sampling time): (eg) (9.98e-6 umol/min) | specific activity of the prothrombin activator (rate of thrombin production against OsPA concentration): (eg) (5.0e-3 units/mg)
